According to PMC10658565, “Polymorphic nanobody crystals as long‐acting intravitreal therapy for wet age‐related macular degeneration” (Bioengineering & Translational Medicine, 2023):
Where a chain is given by its changes, count along the chain named. Numbers in names are those of the source.

B1: mNb‐WT (VHH)
VHH: DVQLVESGGGLVQPGGSLRLSCAASGRTFSSYSMGWFRQAPGKEREFVVAISKGGYKYDAVSLEGRFTISRDNAKNTVYLQINSLRPEDTAVYYCASSRAYGSSRLRLADTYEYWGQGTLVTVSS
notes: also in PDB 8IIU (crystal of the protein without label); The 6xHis-labelled form was used for the ELISA; crystals were grown from protein without label; also called model anti‐VEGF nanobody; model nanobody mNb‐WT
B2: Mutant 6 (S8A mutation) (VHH)
VHH: B1 VHH with S7A
notes: as the chain of m1 with S8A
B3: Mutant 7 (Q14N mutation) (VHH)
VHH: B1 VHH with Q13N
notes: as the chain of m1 with Q14N; also in PDB 8IJS (crystal of the protein without label)
B4: Mutant 5 (Q118N mutation) (VHH)
VHH: B1 VHH with Q117N
notes: as the chain of m1 with Q118N
B5: Mutant 2 (E45A mutation) (VHH)
VHH: B1 VHH with E44A
notes: as the chain of m1 with E45A; also in PDB 8IJZ (crystal of the protein without label)
B6: Mutant 3 (K44A/E45A mutation) (VHH)
VHH: B1 VHH with K43A, E44A
notes: as the chain of m1 with K44A and E45A
B7: Mutant 4 (Y95F mutation) (VHH)
VHH: B1 VHH with Y94F
notes: as the chain of m1 with Y95F
B8: Mutant 1 (K44A mutation) (VHH)
VHH: B1 VHH with K43A
notes: as the chain of m1 with K44A

Biological target: T1, recombinant VEGF‐A165 protein (Homo sapiens (assumed), UniProt P15692-4, strain)
T1 construct: also called vascular endothelial growth factor; source: bought: SinoBiological Co. Ltd. (Cat: HPLC‐11066‐HNAH)
Experiment: ELISA; VEGF‐A165 coated on high adsorption plates overnight at 4°C; blocked with 5% skim milk; linear gradient of 6xHis-labelled nanobodies, 1 h at 37°C; detected with HRP‐conjugated 6xHis tag antibody, TMB, 450 nm
Conditions: both partners purified

T1 sequence (P15692 whole entry, looked up, change not shown): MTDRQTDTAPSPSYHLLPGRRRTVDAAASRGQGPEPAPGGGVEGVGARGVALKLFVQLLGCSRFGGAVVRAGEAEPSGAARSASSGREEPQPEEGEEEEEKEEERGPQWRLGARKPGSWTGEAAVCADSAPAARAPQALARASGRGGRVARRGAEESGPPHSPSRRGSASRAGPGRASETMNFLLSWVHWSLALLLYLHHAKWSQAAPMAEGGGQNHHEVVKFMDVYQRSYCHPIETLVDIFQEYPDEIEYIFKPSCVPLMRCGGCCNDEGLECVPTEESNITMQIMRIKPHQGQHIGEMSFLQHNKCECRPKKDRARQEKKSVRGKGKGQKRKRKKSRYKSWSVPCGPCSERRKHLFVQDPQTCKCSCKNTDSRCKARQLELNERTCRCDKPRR

Binding result, binds:
B1, B2, B3, B4, B5, B6, B7, B8
